Source: patent US8367124B2, “Lymphatic vessel stabilizer” (Shiseido Company, Ltd., priority 2008, dated 2013)

B1: angiopoietin 1 (protein, UniProt O08538 20-498, looked up)
Angiopoietin-1: SNQRRNPENGGRRYNRIQHGQCAYTFILPEHDGNCRESATEQYNTNALQRDAPHVEPDFSSQKLQHLEHVMENYTQWLQKLENYIVENMKSEMAQIQQNAVQNHTATMLEIGTSLLSQTAEQTRKLTDVETQVLNQTSRLEIQLLENSLSTYKLEKQLLQQTNEILKIHEKNSLLEHKILEMEGKHKEELDTLKEEKENLQGLVSRQTFIIQELEKQLSRATNNNSILQKQQLELMDTVHNLISLCTKEGVLLKGGKREEEKPFRDCADVYQAGFNKSGIYTIYFNNMPEPKKVFCNMDVNGGGWTVIQHREDGSLDFQRGWKEYKMGFGNPSGEYWLGNEFIFAITSQRQYMLRIELMDWEGNRAYSQYDRFHIGNEKQNYRLYLKGHTGTAGKQSSLILHGADFSTKDADNDNCMCKCALMLTGGWWFDACGPSNLNGMFYTAGQNHGKLNGIKWHYFKGPSYSLRSTTMMIRPLDF
modifications: adenovirus-expressed
notes: mouse-derived Ang-1 gene expressed from AdenoX adenovirus vector in vivo

How the values were obtained:
[1] = molecular target: T1, Tie2 (Homo sapiens, UniProt Q02763); test: Western blotting of lymphatic endothelial cells (Tie2 phosphorylation); assay type: cell-based; details: Western blot of Tie2 and phosphorylated Tie2, DMSO control, compared with Ang-1
T1 construct: endogenous in cells; host or cells: primary human lymphatic endothelial cells from infant foreskin
T1 sequence (Q02763 23-1124): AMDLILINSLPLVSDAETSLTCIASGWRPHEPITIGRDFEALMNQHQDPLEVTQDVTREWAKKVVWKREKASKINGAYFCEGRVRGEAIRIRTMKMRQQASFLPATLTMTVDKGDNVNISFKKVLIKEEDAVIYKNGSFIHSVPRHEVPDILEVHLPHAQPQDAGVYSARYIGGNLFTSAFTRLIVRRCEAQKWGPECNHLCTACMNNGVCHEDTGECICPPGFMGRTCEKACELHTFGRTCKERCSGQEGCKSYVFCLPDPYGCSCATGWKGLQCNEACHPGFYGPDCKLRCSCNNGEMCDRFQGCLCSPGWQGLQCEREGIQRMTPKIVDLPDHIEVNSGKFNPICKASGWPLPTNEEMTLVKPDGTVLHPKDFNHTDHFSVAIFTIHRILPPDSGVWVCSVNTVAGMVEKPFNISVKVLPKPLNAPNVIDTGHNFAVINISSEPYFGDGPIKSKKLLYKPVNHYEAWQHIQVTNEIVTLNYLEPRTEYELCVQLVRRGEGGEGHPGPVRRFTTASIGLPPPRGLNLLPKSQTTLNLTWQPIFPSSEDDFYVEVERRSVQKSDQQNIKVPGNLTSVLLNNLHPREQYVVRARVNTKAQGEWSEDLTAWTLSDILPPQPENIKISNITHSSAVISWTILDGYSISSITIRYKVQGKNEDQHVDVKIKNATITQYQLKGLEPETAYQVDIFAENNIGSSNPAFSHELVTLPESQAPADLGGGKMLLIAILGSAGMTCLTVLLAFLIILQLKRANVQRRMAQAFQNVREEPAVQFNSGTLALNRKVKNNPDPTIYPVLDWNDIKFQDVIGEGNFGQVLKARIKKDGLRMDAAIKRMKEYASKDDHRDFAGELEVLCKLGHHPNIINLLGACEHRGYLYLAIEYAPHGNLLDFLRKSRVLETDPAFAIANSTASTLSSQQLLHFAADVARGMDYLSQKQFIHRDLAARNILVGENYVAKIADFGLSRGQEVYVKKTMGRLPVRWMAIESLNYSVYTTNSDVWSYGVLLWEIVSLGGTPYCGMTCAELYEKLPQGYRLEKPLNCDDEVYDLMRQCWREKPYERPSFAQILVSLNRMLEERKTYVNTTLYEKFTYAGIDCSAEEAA
Description: Lymphatic endothelial cells were isolated from human infant foreskin as CD31-positive, CD34-negative, CD45-negative cells (Non-Patent Document 6). The lymphatic endothelial cells were cultured in EBM-2 (Cambrex, Verviers, Belgium) supplemented with addition factors, and protein was extracted with Phosphosafe Extraction Reagent (Novagen, Madison, Wis.) in the presence of various drugs (Ang-1, cinnamon bark extract, Siberian Ginseng extract and syringaresinol). Cells supplemented with DMSO were prepared as a control.
Furthermore, the cinnamon bark extract and syringaresinol were prepared in the manner indicated below. The Siberian Ginseng extract (Ask Intercity) was obtained by extracting Siberian Ginseng root with 30% ethanol. This extract was confirmed to contain 1.01% by weight syringaresinol by HPLC. This extract was then dissolved with DMSO for use as each test sample. The total amount of protein was determined with the RC DC Protein Assay Kit (BIO-RAD, Hercules, Calif.), and detected by Western blotting in the manner described below. An equal amount of total protein was subjected to SDS-PAGE using 7.5% acrylamide gel (NPU-7.5L, ATTO, Japan), and expression of Tie2 and phosphorylated Tie2 protein was confirmed by staining with an ECL Kit using […] (Santa Cruz Biotechnology, Santa Cruz, Calif.).

[2] = system: lymphatic vessels; test: Lymph drainage assay (colloidal carbon injected into the auricle of mice infected with Ang-1 adenovirus); assay type: in vivo, mouse
Description: The auricles of 8-week-old mice were infected with adenovirus (1×10^9 ifu/mouse), in which mouse-derived angiopoietin-1 (Ang-1) gene was incorporated into an AdenoX vector, with a Hamilton syringe (Hamilton, Reno. NV). Mice were also infected with adenovirus incorporating only AdenoX vector as a control. 1 μl of colloidal carbon solution (Kamei Co., Ltd., Japan) was injected into the tip of the auricle with a Hamilton syringe followed by analysis of time-based changes in the flow of lymph. […] In addition, a visual assessment of changes in lymphatic vessel recovery function was also carried out, and comparisons were made by scoring to one of levels (5: all ink remaining in lymphatic vessels, 1: all ink recovered and no longer present in lymphatic vessels), the results of which are shown in FIG. 1.
In addition, after sacrificing the animals by anesthesia, the ears of the animals were simultaneously collected and crushed in liquid nitrogen followed by extraction of protein with Phosphosafe Extraction Reagent (Novagen, Madison, Wis.). The total amount of protein was determined with the RC DC Protein Assay Kit (BIO-RAD, Hercules, Calif.) and detected by Western blotting in the manner described below. […]

Row | Molecule | Tie2 phosphorylation (activation) [1] | lymphatic vessel recovery function (time-based changes in the flow of lymph) ([2]; ears of mice highly expressing Ang1 via adenovirus, 1 μl colloidal carbon into tip of auricle, vs AdenoX vector control, data not shown) | lymphatic vessel recovery function, visual assessment score (5: all ink remaining, 1: all ink recovered) ([2]; mouse auricle, Ang-1 adenovirus vs AdenoX vector control, FIG. 1)
1 | COc1cc(C2OCC3C(c4cc(OC)c(O)c(OC)c4)OCC23)cc(OC)c1O (stereo not drawn) [syringaresinol, Syringaresinol] | confirmed to activate Tie2 in the same manner as Ang-1 |  | 
2 | B1 |  | promoted | remarkable promotion of lymphatic vessel recovery function
